{"source": "patent US20230190900", "about": "(published 2023)", "binders": {"B1": {"name": "Bi-scFv-Fc_02 (full) (antibody)", "chain 1": "SYVLTQPSSVSVAPGQTATISCGGHNIGSKNVHWYQQRPGQSPVLVIYQDNKRPSGIPERFSGSNSGNTATLTISGTQAMDEADYYCQVWDNYSVLFGGGTKLTVLGGSGGSGGSGGSGGSGGSGGSQVQLVQSGAEVKKPGESLKVSCKASGYTFTSYYMHWVRQAPGQGLEWMGIINPSGGSTSYAQKFQGRVTMTRDTSTSTVYMELSSLRSEDTAVYYCARGSAYYYDFADYWGQGTLVTVSSEPKSCDKTHTCPPCPAPEFEGGPSVFLFPPKPKDTLMISRTPEVTCVVVAVSHEDPEVKFNWYVDGVEVHNAKTKPREEQYNSTYRVVSVLTVLHQDWLNGKEYKCKVSNKALPAPIEKTISKAKGQPREPQVYTLPPSREEMTKNQVSLTCLVKGFYPSDIAVEWESNGQPENNYKTTPPVLDSDGSFFLYSKLTVDKSRWQQGNVFSCSVMHEALHNHYTQKSLSLSPGGGGGSGGGGSQVQLQESGPGLVKPSETLSLTCTVSGGSVSSGSYYWSWIRQPPGKGLEWIGYIYYSGSTNYNPSLKSRVTISVDTSKNQFSLKLSSVTAADTAVYYCARNPISIPAFDIWGQGTMVTVSSGGSGGSGGSGGSGGSGGSQPVLTQPPSVSVAPGKTARITCGGNNIGSKSVHWYQQKPGQAPVLVIYYDSDRPSGIPERFSGSNSGNTATLTISRVEAGDEADYYCQVWDTSSDHVLFGGGTKLTVL", "chain 2": "B1 chain 1"}, "B2": {"name": "scFv-IgAb_02 (full) (antibody)", "chain 1": "QVQLVQSGAEVKKPGESLKVSCKASGYTFTSYYMHWVRQAPGQGLEWMGIINPSGGSTSYAQKFQGRVTMTRDTSTSTVYMELSSLRSEDTAVYYCARGSAYYYDFADYWGQGTLVTVSSASTKGPSVFPLAPSSKSTSGGTAALGCLVKDYFPEPVTVSWNSGALTSGVHTFPAVLQSSGLYSLSSVVTVPSSSLGTQTYICNVNHKPSNTKVDKKVEPKSCDKTHTCPPCPAPEFEGGPSVFLFPPKPKDTLMISRTPEVTCVVVAVSHEDPEVKFNWYVDGVEVHNAKTKPREEQYNSTYRVVSVLTVLHQDWLNGKEYKCKVSNKALPAPIEKTISKAKGQPREPQVYTLPPSREEMTKNQVSLTCLVKGFYPSDIAVEWESNGQPENNYKTTPPVLDSDGSFFLYSKLTVDKSRWQQGNVFSCSVMHEALHNHYTQKSLSLSPGGGGGSGGGGSQVQLQESGPGLVKPSETLSLTCTVSGGSVSSGSYYWSWIRQPPGKGLEWIGYIYYSGSTNYNPSLKSRVTISVDTSKNQFSLKLSSVTAADTAVYYCARNPISIPAFDIWGQGTMVTVSSGGSGGSGGSGGSGGSGGSQPVLTQPPSVSVAPGKTARITCGGNNIGSKSVHWYQQKPGQAPVLVIYYDSDRPSGIPERFSGSNSGNTATLTISRVEAGDEADYYCQVWDTSSDHVLFGGGTKLTVL", "chain 2": "SYVLTQPSSVSVAPGQTATISCGGHNIGSKNVHWYQQRPGQSPVLVIYQDNKRPSGIPERFSGSNSGNTATLTISGTQAMDEADYYCQVWDNYSVLFGGGTKLTVLGQPKAAPSVTLFPPSSEELQANKATLVCLISDFYPGAVTVAWKADSSPVKAGVETTTPSKQSNNKYAASSYLSLTPEQWKSHRSYSCQVTHEGSTVEKTVAPTECS"}}, "key": {"[1]": {"target": "T1, murine FcγRI (mouse, UniProt P26151)", "T1 chain": "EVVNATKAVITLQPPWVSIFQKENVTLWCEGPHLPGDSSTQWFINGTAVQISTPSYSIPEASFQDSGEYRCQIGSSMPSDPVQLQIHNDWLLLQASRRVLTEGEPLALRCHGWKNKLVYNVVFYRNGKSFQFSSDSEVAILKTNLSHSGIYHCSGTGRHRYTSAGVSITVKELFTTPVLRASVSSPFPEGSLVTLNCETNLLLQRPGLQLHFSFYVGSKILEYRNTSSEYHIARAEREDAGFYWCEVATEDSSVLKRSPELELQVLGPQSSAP", "assay": "SPR"}, "[2]": {"target": "T2, murine FcRn (mouse, UniProt Q61559)", "T2 chain 1": "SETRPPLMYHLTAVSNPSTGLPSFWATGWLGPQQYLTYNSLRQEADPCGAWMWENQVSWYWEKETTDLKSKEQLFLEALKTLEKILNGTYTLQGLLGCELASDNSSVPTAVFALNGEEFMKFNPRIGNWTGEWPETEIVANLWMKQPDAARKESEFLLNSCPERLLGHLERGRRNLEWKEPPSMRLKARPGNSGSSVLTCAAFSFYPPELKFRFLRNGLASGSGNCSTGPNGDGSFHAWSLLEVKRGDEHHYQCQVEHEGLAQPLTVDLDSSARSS", "T2 chain 2": "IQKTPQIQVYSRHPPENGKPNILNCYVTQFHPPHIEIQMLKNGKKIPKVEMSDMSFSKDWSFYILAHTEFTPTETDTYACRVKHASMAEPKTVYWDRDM", "assay": "SPR, pH 6.0"}, "[3]": {"target": "T3, human FcγRI (CD64) (human, UniProt P12314)", "T3 chain": "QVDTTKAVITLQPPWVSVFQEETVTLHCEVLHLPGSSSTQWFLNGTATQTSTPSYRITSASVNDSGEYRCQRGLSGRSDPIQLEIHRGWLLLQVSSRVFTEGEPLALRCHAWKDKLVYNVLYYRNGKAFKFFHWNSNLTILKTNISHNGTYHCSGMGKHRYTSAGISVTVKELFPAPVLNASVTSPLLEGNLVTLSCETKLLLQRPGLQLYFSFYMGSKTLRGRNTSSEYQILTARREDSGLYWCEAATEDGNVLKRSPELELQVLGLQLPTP", "assay": "SPR"}, "[4]": {"target": "human FcRn (human, UniProt P55899)", "assay": "SPR, pH 6.0"}, "[5]": {"target": "T4, murine FcγRIV (CD16-2) (mouse, UniProt A0A0B4J1G0)", "T4 chain": "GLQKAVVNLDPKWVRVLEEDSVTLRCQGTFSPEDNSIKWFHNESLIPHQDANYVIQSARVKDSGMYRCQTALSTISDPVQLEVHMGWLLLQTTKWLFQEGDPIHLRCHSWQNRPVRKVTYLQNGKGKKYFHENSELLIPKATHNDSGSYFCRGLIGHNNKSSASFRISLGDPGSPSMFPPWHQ", "assay": "SPR"}, "[6]": {"target": "T5, murine FcγRIIb (mouse, UniProt P08101)", "T5 chain": "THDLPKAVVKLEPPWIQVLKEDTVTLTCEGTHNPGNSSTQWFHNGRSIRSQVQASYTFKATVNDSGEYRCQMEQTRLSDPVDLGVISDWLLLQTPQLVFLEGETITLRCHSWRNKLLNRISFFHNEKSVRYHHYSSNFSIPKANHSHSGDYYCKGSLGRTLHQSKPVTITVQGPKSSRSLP", "assay": "SPR"}, "[7]": {"target": "T6, cynomolgus FcRn (cynomolgus, UniProt Q8SPV9)", "T6 chain 1": "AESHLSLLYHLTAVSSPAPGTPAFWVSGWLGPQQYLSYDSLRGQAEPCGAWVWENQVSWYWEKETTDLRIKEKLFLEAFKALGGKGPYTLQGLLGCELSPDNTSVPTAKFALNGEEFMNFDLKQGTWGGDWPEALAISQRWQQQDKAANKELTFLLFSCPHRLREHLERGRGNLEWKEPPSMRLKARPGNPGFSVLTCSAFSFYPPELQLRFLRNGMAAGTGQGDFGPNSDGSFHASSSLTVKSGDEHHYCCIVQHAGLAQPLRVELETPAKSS", "T6 chain 2": "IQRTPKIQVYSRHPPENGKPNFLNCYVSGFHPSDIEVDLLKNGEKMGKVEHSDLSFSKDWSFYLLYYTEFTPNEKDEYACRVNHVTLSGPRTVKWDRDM", "assay": "SPR, pH 6.0"}, "[8]": {"target": "T7, human FcγRIIb (CD32B) (human, UniProt P31994)", "T7 chain": "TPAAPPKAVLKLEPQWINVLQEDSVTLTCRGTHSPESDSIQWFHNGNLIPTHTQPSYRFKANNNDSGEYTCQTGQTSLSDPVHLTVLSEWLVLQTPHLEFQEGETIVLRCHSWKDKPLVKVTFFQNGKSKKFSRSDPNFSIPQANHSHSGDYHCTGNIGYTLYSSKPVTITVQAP", "assay": "SPR"}, "[9]": {"target": "T8, human FcγRIIIb (NA1) CD16B (human, UniProt O75015)", "T8 chain": "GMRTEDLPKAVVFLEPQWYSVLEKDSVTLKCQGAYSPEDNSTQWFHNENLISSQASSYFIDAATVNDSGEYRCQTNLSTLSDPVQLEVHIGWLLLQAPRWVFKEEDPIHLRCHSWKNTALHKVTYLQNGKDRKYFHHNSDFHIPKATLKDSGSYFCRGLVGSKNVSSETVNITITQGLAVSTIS", "assay": "SPR"}, "[10]": {"target": "T9, human FcγRIIa (CD32A) (human, UniProt P12318)", "T9 chain": "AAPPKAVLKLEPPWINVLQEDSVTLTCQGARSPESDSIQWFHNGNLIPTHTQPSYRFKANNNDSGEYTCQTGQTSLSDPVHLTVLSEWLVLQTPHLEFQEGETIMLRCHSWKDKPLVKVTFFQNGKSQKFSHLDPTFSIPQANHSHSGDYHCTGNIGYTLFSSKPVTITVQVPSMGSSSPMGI", "assay": "SPR"}, "[11]": {"target": "T10, murine FcγRIII (mouse, UniProt P08508)", "T10 chain": "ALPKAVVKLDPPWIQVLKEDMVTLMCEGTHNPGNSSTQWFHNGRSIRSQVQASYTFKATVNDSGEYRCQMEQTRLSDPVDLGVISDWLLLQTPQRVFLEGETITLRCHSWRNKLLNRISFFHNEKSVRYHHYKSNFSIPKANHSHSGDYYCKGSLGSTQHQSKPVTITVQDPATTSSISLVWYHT", "assay": "SPR"}, "[12]": {"target": "T11, cynomolgus FcγRIIa (CD32A) (cynomolgus)", "T11 chain": "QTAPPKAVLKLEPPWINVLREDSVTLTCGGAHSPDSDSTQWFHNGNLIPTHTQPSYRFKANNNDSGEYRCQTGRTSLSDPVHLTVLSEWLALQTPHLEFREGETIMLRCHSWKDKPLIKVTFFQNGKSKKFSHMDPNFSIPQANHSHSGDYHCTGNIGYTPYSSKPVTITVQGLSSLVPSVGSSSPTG", "assay": "SPR"}, "[13]": {"target": "T12, human FcγRIIc (CD32C) (human, UniProt P31995)", "T12 chain": "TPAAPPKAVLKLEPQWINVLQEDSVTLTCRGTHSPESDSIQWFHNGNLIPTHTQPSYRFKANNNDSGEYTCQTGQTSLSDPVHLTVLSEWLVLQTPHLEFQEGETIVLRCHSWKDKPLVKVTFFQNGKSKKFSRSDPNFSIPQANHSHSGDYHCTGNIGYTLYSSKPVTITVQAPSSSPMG", "assay": "SPR"}}, "data": [{"binder": "B1", "values": [{"measurement": "binding result", "setting": "[1]", "result": "no binding"}, {"measurement": "Kd", "setting": "[2]", "result": 121, "unit": "nM"}, {"measurement": "binding result", "setting": "[3]", "result": "no binding"}, {"measurement": "Kd", "setting": "[4]", "result": 410, "unit": "nM"}, {"measurement": "binding result", "setting": "[5]", "result": "no binding"}, {"measurement": "binding result", "setting": "[6]", "result": "no binding"}, {"measurement": "Kd", "setting": "[7]", "result": 268, "unit": "nM"}, {"measurement": "binding result", "setting": "[8]", "result": "no binding"}, {"measurement": "binding result", "setting": "[9]", "result": "no binding"}, {"measurement": "binding result", "setting": "[10]", "result": "no binding"}, {"measurement": "binding result", "setting": "[11]", "result": "no binding"}, {"measurement": "binding result", "setting": "[12]", "result": "no binding"}, {"measurement": "binding result", "setting": "[13]", "result": "no binding"}]}, {"binder": "B2", "values": [{"measurement": "binding result", "setting": "[1]", "result": "no binding"}, {"measurement": "Kd", "setting": "[2]", "result": 180, "unit": "nM"}, {"measurement": "binding result", "setting": "[3]", "result": "no binding"}, {"measurement": "Kd", "setting": "[4]", "result": 430, "unit": "nM"}, {"measurement": "binding result", "setting": "[5]", "result": "no binding"}, {"measurement": "binding result", "setting": "[6]", "result": "no binding"}, {"measurement": "Kd", "setting": "[7]", "result": 842, "unit": "nM"}, {"measurement": "binding result", "setting": "[8]", "result": "no binding"}, {"measurement": "binding result", "setting": "[9]", "result": "no binding"}, {"measurement": "binding result", "setting": "[10]", "result": "no binding"}, {"measurement": "binding result", "setting": "[11]", "result": "no binding"}, {"measurement": "binding result", "setting": "[12]", "result": "no binding"}, {"measurement": "binding result", "setting": "[13]", "result": "no binding"}]}]}
